Test results: patent US20020058619A1

Assays:
[1] = biological target: Recombinant human Flt-1/Fc chimera (R&D Systems) (human) (UniProt P17948); test: fluorescence plate assay; control peptide at 1 µM on immobilized Flt-1/Fc
[2] = biological target: Recombinant human Flt-1/Fc chimera (R&D Systems) (human) (UniProt P17948); test: fluorescence plate assay; control peptide at 10 µM on immobilized Flt-1/Fc
[3] = biological target: Recombinant human Flt-1/Fc chimera (R&D Systems) (human) (UniProt P17948); test: fluorescence plate assay; control peptide at 0.1 µM on immobilized Flt-1/Fc
[4] = biological target: Recombinant human Flt-1/Fc chimera (R&D Systems) (human) (UniProt P17948); test: fluorescence plate assay; control peptide at 100 µM on immobilized Flt-1/Fc
[5] = biological target: Recombinant human Flt-1/Fc chimera (R&D Systems) (human) (UniProt P17948); test: fluorescence plate assay; control peptide at 0 µM on immobilized Flt-1/Fc

Recombinant human Flt-1/Fc chimera (R&D Systems) (human), sequence (P17948 other isoform, or with tags, fused parts or gaps mutant limits assumed): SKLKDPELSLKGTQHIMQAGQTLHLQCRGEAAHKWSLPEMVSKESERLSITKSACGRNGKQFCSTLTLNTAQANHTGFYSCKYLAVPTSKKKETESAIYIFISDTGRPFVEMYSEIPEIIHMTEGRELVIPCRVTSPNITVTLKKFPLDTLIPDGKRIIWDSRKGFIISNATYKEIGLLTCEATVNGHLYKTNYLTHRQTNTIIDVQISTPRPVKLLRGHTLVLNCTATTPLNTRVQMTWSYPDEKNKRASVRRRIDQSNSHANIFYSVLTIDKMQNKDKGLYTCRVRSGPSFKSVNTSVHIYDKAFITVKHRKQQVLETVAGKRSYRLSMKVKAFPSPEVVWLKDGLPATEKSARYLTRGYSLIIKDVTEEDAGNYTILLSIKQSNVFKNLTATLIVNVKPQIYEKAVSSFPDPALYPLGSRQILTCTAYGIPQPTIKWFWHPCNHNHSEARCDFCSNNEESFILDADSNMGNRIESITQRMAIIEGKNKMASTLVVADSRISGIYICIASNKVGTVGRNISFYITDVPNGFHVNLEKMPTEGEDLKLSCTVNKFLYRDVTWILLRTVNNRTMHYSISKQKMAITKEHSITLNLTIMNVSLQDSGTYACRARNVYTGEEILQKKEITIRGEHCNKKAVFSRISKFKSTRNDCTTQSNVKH

Fluorescence [1]: 20
Fluorescence [2]: 493
Fluorescence [3]: 7
Fluorescence [4]: 1100
Fluorescence [5]: 0
Substance: Control peptide (Table 5)
